Results on 1 molecule are retold here after PMC7152990, “Plasmon-Emitter Hybrid Nanostructures of Gold Nanorod-Quantum Dots with Regulated Energy Transfer as a Universal Nano-Sensor for One-Step Biomarker Detection”.

The target of this data set is T1, alpha fetoprotein (AFP) (human, UniProt P02771 19-609).
T1 sequence: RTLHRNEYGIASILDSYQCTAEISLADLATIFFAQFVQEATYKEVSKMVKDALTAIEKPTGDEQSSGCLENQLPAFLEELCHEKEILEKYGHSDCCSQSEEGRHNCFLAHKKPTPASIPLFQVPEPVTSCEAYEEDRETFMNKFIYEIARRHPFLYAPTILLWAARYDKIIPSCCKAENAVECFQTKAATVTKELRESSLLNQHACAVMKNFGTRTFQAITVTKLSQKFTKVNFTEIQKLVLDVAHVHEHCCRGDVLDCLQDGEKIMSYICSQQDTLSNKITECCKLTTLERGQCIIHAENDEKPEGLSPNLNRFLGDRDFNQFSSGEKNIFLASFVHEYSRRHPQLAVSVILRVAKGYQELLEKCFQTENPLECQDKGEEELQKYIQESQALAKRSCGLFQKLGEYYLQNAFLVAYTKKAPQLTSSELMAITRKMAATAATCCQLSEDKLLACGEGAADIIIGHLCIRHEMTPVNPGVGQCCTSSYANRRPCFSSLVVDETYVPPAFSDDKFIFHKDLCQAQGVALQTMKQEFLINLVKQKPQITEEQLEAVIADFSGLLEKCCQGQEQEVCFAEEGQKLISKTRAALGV
Nature of the data set: plasmon-regulated FRET / LSPR shift aptasensor (Au NR-QDs); 20 ng/mL AFP; LSPR redshift 1.2 nm, fluorescence decrease ~18%; sensor LOD 0.30 ng/mL (not a Kd); aptamer immobilized on Au NR-QDs via glutaraldehyde (room temperature, 2 h, water); AFP binding buffer, pH and temperature not given in the material. The note with it: protein: commercial.

B1: AFP aptamer (ssDNA)
DNA: GTGACGCTCCTAACGCTGACTCAGGTGCAGTTCTCGACTCGGTCTTGATGTGGGTCCTGTCCGTCCGAACCAATC
modifications: 5'-NH2
Turning to B1, the binding result is “binds”.
